The series deals with Escherichia coli TOP10. The series is described as follows: shrunken log2 fold change of peptide-encoding DNA abundance (4.5 h post-induction vs induction); higher = less antimicrobial activity (less host growth inhibition). The conditions noted are these: time post-induction: 4.5 h; library: site-saturation at positions 5, 18, 19, 20.
In the case of RRIRARPPRLPRPRPRPTGFPRP, the “shrunken log2 fold change” value worked out at 0.105.
On to RRIRTRPPRLPRPRPRPSGWPRP, for which the “shrunken log2 fold change” value is -0.00504.
For RRIRLRPPRLPRPRPRPVHPPRP, the “shrunken log2 fold change” value is 0.039.
Turning to RRIRCRPPRLPRPRPRPWHFPRP, the “shrunken log2 fold change” value is -0.422.
In the case of RRIRERPPRLPRPRPRPSQFPRP, the “shrunken log2 fold change” value was -0.474.
In the case of RRIRQRPPRLPRPRPRPAPLPRP, the “shrunken log2 fold change” value turned out to be 0.451.
RRIRHRPPRLPRPRPRPQNPPRP: the “shrunken log2 fold change” value was -0.0256.
Turning to RRIRHRPPRLPRPRPRPNTSPRP, the “shrunken log2 fold change” value is -0.534.
Consider RRIRNRPPRLPRPRPRPPESPRP, for which the “shrunken log2 fold change” value is -0.000194.
In the case of RRIRDRPPRLPRPRPRPSWGPRP, the “shrunken log2 fold change” value came to 0.0384.
Consider RRIRIRPPRLPRPRPRPNEWPRP, for which the “shrunken log2 fold change” value was -0.00088.
Consider RRIRSRPPRLPRPRPRPPKIPRP, for which the “shrunken log2 fold change” value is -0.0117.
On to RRIRARPPRLPRPRPRPSIDPRP, for which the “shrunken log2 fold change” value was -0.0466.
For RRIRTRPPRLPRPRPRPERAPRP, the “shrunken log2 fold change” value turned out to be 0.55.
On to RRIRNRPPRLPRPRPRPFLSPRP, for which the “shrunken log2 fold change” value was -0.246.
As to RRIRVRPPRLPRPRPRPYIVPRP, the “shrunken log2 fold change” value was -0.00649.
As for RRIRNRPPRLPRPRPRPQLLPRP, the “shrunken log2 fold change” value was -0.0811.
Turning to RRIRERPPRLPRPRPRPHIPPRP, the “shrunken log2 fold change” value was -0.682.
Turning to RRIRYRPPRLPRPRPRPWDWPRP, the “shrunken log2 fold change” value is -0.0724.
For RRIRWRPPRLPRPRPRPHHMPRP, the “shrunken log2 fold change” value is -0.592.
RRIRDRPPRLPRPRPRPSPYPRP: the “shrunken log2 fold change” value was -1.07.
Consider RRIRSRPPRLPRPRPRPYAMPRP, for which the “shrunken log2 fold change” value is -0.909.
Consider RRIRQRPPRLPRPRPRPVMWPRP, for which the “shrunken log2 fold change” value was 0.448.
As for RRIRLRPPRLPRPRPRPIVTPRP, the “shrunken log2 fold change” value was determined as 2.68.
In the case of RRIRNRPPRLPRPRPRPTWYPRP it was 0.0037; in that of RRIRSRPPRLPRPRPRPHVSPRP, -0.0482; in that of RRIRGRPPRLPRPRPRPWNVPRP, -0.0303.
As for RRIRLRPPRLPRPRPRPESCPRP, the figure is 0.0209.
With RRIRHRPPRLPRPRPRPVIQPRP, the “shrunken log2 fold change” value is -0.00152.
With RRIRIRPPRLPRPRPRPGQRPRP, the “shrunken log2 fold change” value is -0.0709.
Turning to RRIRPRPPRLPRPRPRPYKRPRP, the “shrunken log2 fold change” value is -0.345.
RRIRDRPPRLPRPRPRPMVKPRP: the “shrunken log2 fold change” value came out at 0.115.
RRIRRRPPRLPRPRPRPHKKPRP: the “shrunken log2 fold change” value stood at 0.228.
On to RRIRDRPPRLPRPRPRPYWLPRP, for which the “shrunken log2 fold change” value is -0.236.
RRIRFRPPRLPRPRPRPYFVPRP: the “shrunken log2 fold change” value is -0.59.
For RRIRWRPPRLPRPRPRPPNKPRP, the “shrunken log2 fold change” value came to 0.206.
For the sequence RRIRMRPPRLPRPRPRPCVYPRP, the “shrunken log2 fold change” value was -0.195.
Consider RRIRFRPPRLPRPRPRPDMPPRP, for which the “shrunken log2 fold change” value was -0.016.
RRIRARPPRLPRPRPRPPIMPRP: the “shrunken log2 fold change” value amounted to 0.0549.
As for RRIRKRPPRLPRPRPRPCLHPRP, the “shrunken log2 fold change” value is -0.0515.
On to RRIRRRPPRLPRPRPRPTRAPRP, for which the “shrunken log2 fold change” value turned out to be 0.738.
RRIRERPPRLPRPRPRPVVDPRP: the “shrunken log2 fold change” value stood at 0.0306.
As for RRIRFRPPRLPRPRPRPGQWPRP, the figure is -0.00218.
For the sequence RRIRWRPPRLPRPRPRPNVQPRP, the “shrunken log2 fold change” value is -0.0399.
For RRIRTRPPRLPRPRPRPAGVPRP, the “shrunken log2 fold change” value came out at 0.107.
Consider RRIRERPPRLPRPRPRPRASPRP, for which the “shrunken log2 fold change” value was -0.0261.
Turning to RRIRMRPPRLPRPRPRPKMMPRP, the “shrunken log2 fold change” value turned out to be 0.351.
Take RRIRERPPRLPRPRPRPYCSPRP: the “shrunken log2 fold change” value is -0.57.
As to RRIRNRPPRLPRPRPRPPWKPRP, the “shrunken log2 fold change” value was -0.0649.
For the sequence RRIRLRPPRLPRPRPRPAWKPRP, the “shrunken log2 fold change” value is 0.151.

Source of the values: the supplement of paper PMC9112550, “Optimization of the antimicrobial peptide Bac7 by deep mutational scanning” (BMC Biology, 2022).
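Note: peptides expressed intracellularly from a pBAD plasmid library in pooled LB shake-flask culture, induced with 0.3% L-arabinose, DNA abundance read by NGS, three biological replicates, DESeq2 with apeglm shrinkage.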
